Laboratory results: patent US20230265151A1, “GIP/GLP1 CO-AGONIST COMPOUNDS” (priority 2020, published 2023)
Residue numbers refer to the chain shown, from its start. *1 amine or outer side, *2 acyl side, *3 side chain or, on linkers, in order; H or OH if unused. Where no end group is shown, it is not given here. Side-chain parts run from the residue outwards. [ ]: non-standard residue; d: D form. The star is where a group is joined. Decanoyl(10-(4-HOOC-PhO)) = O=C(O)c1ccc(OCCCCCCCCCC(=O)*)cc1; αMePhe(2-F) = C[C@](N)(Cc1ccccc1F)C(=O)O; γGlu = O=C(O)[C@H](CCC(=O)[*:2])N[*:1]; C14 diacid = O=C(O)CCCCCCCCCCCCC(=O)*; αMeY = C[C@](N)(Cc1ccc(O)cc1)C(=O)O; αMeL = CC(C)C[C@](C)(N)C(=O)O; Orn = NCCC[C@H](N)C(=O)O; AEEA = NCCOCCOCC(=O)O; Aib = CC(C)(N)C(=O)O

T1: human GIP receptor (human) (UniProt P48546)
T1 sequence (looked up): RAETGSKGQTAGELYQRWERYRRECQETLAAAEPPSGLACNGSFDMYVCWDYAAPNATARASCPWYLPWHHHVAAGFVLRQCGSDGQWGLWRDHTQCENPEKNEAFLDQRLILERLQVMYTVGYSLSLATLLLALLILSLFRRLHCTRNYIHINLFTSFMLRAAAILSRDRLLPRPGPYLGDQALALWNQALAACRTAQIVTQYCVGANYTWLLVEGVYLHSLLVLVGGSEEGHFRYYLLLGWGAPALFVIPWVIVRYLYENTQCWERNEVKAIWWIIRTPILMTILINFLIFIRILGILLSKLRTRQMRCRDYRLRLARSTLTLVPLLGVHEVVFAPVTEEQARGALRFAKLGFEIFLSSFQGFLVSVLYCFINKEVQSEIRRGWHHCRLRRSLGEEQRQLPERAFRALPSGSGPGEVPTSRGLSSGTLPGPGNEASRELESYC

T2: human GIP receptor (human, UniProt P48546 22-466)
T2 sequence (looked up): T1 sequence (looked up)

B1: Example 385 (peptide)
peptide: YXEGTXTSDYXIXLDXKAQXKFIXXLIEGGPSSGAPPPS
modifications: Y-Aib-EGT-αMeF(2F)-TSDY-Aib-I-αMeL-LD-Orn-K((2-[2-(2-Amino-ethoxy)-ethoxy]-acetyl)2-CO-(CH2)12-CO2H)AQ-Aib-K((2-[2-(2-Amino-ethoxy)-ethoxy]-acetyl)2-CO-(CH2)12-CO2H)FI-(D-Glu)-αMeY-LIEGGPSSGAPPPS-NH2
B2: Example 388 (peptide)
peptide: B1 peptide with K21E, E28K
modifications: Y-Aib-EGT-αMeF(2F)-TSDY-Aib-I-αMeL-LD-Orn-K((2-[2-(2-Amino-ethoxy)-ethoxy]-acetyl)2-CO-(CH2)12-CO2H)AQ-Aib-EFI-(D-Glu)-αMeY-LIK((2-[2-(2-Amino-ethoxy)-ethoxy]-acetyl)2-CO-(CH2)12-CO2H)GGPSSGAPPPS-NH2

Target: hGLP-1R (Homo sapiens, UniProt P43220)
Assay: cell-based or functional assay

Row | Binder | cAMP EC50 | cAMP Emax
1 | B1 | 0.189 nM | 100%
2 | B2 | 0.292 nM | 95.4%
3 | Y[Aib]EGT[αMePhe(2-F)]TSDV[Aib]I[αMeL]LD[Orn]K([AEEA-AEEA-C14 diacid])AQ[Aib]EFI[dE][αMeY]LIK([AEEA-AEEA-C14 diacid])GGPSSGAPPPS-NH2 [Example 389] | 0.19 nM | 92.4%
4 | Y[Aib]EGT[αMePhe(2-F)]TSDV[Aib]I[αMeL]LD[Orn]IAQ[Aib]K([AEEA-γGlu-Decanoyl(10-(4-HOOC-PhO))])FI[dE][αMeY]LIK([AEEA-γGlu-Decanoyl(10-(4-HOOC-PhO))])GGPSSGAPPPS-NH2 [Example 382] | 0.619 nM | 101%

Target: T1, human GIP receptor (human)
Assay: cell-based or functional assay

Row | Binder | cAMP EC50 | cAMP Emax
5 | B1 | 0.0154 nM | 95.2%
6 | B2 | 0.0103 nM | 98.3%
7 | Y[Aib]EGT[αMePhe(2-F)]TSDV[Aib]I[αMeL]LD[Orn]K([AEEA-AEEA-C14 diacid])AQ[Aib]EFI[dE][αMeY]LIK([AEEA-AEEA-C14 diacid])GGPSSGAPPPS-NH2 [Example 389] | 0.0178 nM | 94.6%
8 | Y[Aib]EGT[αMePhe(2-F)]TSDV[Aib]I[αMeL]LD[Orn]IAQ[Aib]K([AEEA-γGlu-Decanoyl(10-(4-HOOC-PhO))])FI[dE][αMeY]LIK([AEEA-γGlu-Decanoyl(10-(4-HOOC-PhO))])GGPSSGAPPPS-NH2 [Example 382] | 0.0302 nM | 97.6%

Target: human glucagon receptor (human) (UniProt P47871)
Assay: cell-based or functional assay

Row | Binder | cAMP EC50
9 | B1 | > 9950 nM
10 | B2 | > 9950 nM
11 | Y[Aib]EGT[αMePhe(2-F)]TSDV[Aib]I[αMeL]LD[Orn]K([AEEA-AEEA-C14 diacid])AQ[Aib]EFI[dE][αMeY]LIK([AEEA-AEEA-C14 diacid])GGPSSGAPPPS-NH2 [Example 389] | > 9950 nM
12 | Y[Aib]EGT[αMePhe(2-F)]TSDV[Aib]I[αMeL]LD[Orn]IAQ[Aib]K([AEEA-γGlu-Decanoyl(10-(4-HOOC-PhO))])FI[dE][αMeY]LIK([AEEA-γGlu-Decanoyl(10-(4-HOOC-PhO))])GGPSSGAPPPS-NH2 [Example 382] | > 9950 nM

Target: T2, human GIP receptor
Assay: cell-based or functional assay

Row | Binder | cAMP EC50 (1.0% HSA) | cAMP Emax (1.0% HSA)
13 | B1 | 0.558 nM | 83.5%
14 | B2 | 0.463 nM | –
15 | Y[Aib]EGT[αMePhe(2-F)]TSDV[Aib]I[αMeL]LD[Orn]K([AEEA-AEEA-C14 diacid])AQ[Aib]EFI[dE][αMeY]LIK([AEEA-AEEA-C14 diacid])GGPSSGAPPPS-NH2 [Example 389] | 1.5 nM | 82%
16 | Y[Aib]EGT[αMePhe(2-F)]TSDV[Aib]I[αMeL]LD[Orn]IAQ[Aib]K([AEEA-γGlu-Decanoyl(10-(4-HOOC-PhO))])FI[dE][αMeY]LIK([AEEA-γGlu-Decanoyl(10-(4-HOOC-PhO))])GGPSSGAPPPS-NH2 [Example 382] | 18.7 nM | 87.2%

Target: human GLP-1 receptor (human, UniProt P43220 24-463)
Assay: cell-based or functional assay

Row | Binder | cAMP EC50 (1.0% HSA) | cAMP Emax (1.0% HSA)
17 | B1 | 10.6 nM | 112%
18 | B2 | 6.31 nM | –
19 | Y[Aib]EGT[αMePhe(2-F)]TSDV[Aib]I[αMeL]LD[Orn]K([AEEA-AEEA-C14 diacid])AQ[Aib]EFI[dE][αMeY]LIK([AEEA-AEEA-C14 diacid])GGPSSGAPPPS-NH2 [Example 389] | 9.58 nM | –
20 | Y[Aib]EGT[αMePhe(2-F)]TSDV[Aib]I[αMeL]LD[Orn]IAQ[Aib]K([AEEA-γGlu-Decanoyl(10-(4-HOOC-PhO))])FI[dE][αMeY]LIK([AEEA-γGlu-Decanoyl(10-(4-HOOC-PhO))])GGPSSGAPPPS-NH2 [Example 382] | 204 nM | –

Target: human glucagon receptor (human, UniProt P47871 26-477)
Sequence (P47871 26-477): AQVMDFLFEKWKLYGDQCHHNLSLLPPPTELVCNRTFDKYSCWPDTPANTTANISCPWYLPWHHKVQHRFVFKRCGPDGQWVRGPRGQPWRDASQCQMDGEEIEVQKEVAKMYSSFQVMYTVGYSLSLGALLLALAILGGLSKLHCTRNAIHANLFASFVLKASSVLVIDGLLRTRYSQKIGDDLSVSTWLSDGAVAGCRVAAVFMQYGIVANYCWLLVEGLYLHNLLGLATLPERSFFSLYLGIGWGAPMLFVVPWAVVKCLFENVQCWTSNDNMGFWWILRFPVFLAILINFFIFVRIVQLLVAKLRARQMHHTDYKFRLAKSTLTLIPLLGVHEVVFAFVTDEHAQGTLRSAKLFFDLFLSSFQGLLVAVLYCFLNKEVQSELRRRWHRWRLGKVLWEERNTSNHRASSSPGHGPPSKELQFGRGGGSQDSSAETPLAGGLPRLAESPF
Assay: cell-based or functional assay

Row | Binder | cAMP EC50 (1.0% HSA)
21 | B1 | > 9950 nM
22 | B2 | > 9950 nM
23 | Y[Aib]EGT[αMePhe(2-F)]TSDV[Aib]I[αMeL]LD[Orn]K([AEEA-AEEA-C14 diacid])AQ[Aib]EFI[dE][αMeY]LIK([AEEA-AEEA-C14 diacid])GGPSSGAPPPS-NH2 [Example 389] | > 9950 nM
24 | Y[Aib]EGT[αMePhe(2-F)]TSDV[Aib]I[αMeL]LD[Orn]IAQ[Aib]K([AEEA-γGlu-Decanoyl(10-(4-HOOC-PhO))])FI[dE][αMeY]LIK([AEEA-γGlu-Decanoyl(10-(4-HOOC-PhO))])GGPSSGAPPPS-NH2 [Example 382] | > 9950 nM
